Measurements published in the supplement of paper PMC9170038.

The sequences below were run on K4 kissing-loop RNA reporter (assay: apparent KD of K4 kissing-loop reporter; higher = weaker reporter binding). Conditions: Eterna round: R107; input ligand: theophylline 20 uM.
Protocol: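 RNA-MaP round R107: designed RNA switches with theophylline, tryptophan, arginine or FMN aptamers are transcribed on-chip within common flanks. They are titrated with a labelled K4 kissing-loop RNA reporter in RNA-MaP buffer (100 mM Tris pH 7.5, 80 mM KCl, 4 mM MgCl2), without ligand or with the indicated ligand. Median apparent KD per design.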
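Note: bound reporter read as fluorescence of individual clusters on recovered sequencing chips by microscopy, with normalized cluster intensities fitted with a binding model.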

| Sequence | apparent KD of K4 kissing-loop reporter [nM] |
| --- | --- |
| AGUCCACUCUAAAGAGUGGACCUAAGGGAUACCAGUGAUGUUGGUCACCCUUGGCAGCCCGCUGUCAUCGAUAAAGAUGGCAGGA | 127 |
| GCCUAGGCUCGAAAGAGCCUAGGCUUGUCUCAGGAUAUCUGGAAACAGAGAAGGGAGCUACUAGUGAUGUUAGGAAUUCCCUAAG | 92.3 |
| CAUUCACGGCGAGUCGAAGUGAUGUUUCGGCGAGGACCGGUACGGCCGCCACUCGGAUAAAUAUAGCUUAUCACAUACACUUUCG [theeternabot_exclusion_KL_Trp_A_27] | 186 |
| AAAAUAAACCAGUGAUGUUGGUGUCCAGAUACCAGCGGUAAAAUCCGCCCUUGGCAGCUGUGGACGUACAAAAUAAGUACGUCCU [MatMod 4 - Jieux - Same State - Theophylline A] | 286 |
| AACCGUGUGGCGGCCGCCACUAGUCUCCAGUGAUGUUGGAGAGACCACGUAAGUGGUCUCCAACAUAGGACCGGGCCAUAUGGAA [Same State - Tryptophan B (Freestyle 26)] | 132 |
| AAGCAGUCAGGAUCGAAGAUCCUGCAAAACCGAGGACCGGUACGGCCGCCACUCGGAGUGAUGUUCCGAAGACUGCAAAAUAAAA [#SwitchBubble 6] | 150 |
| GACUCUCUCGUCAGGAAGACGCACUCAGCCAAGGAUAUUAUGUUUUUAAGAAGGUGGACUUAUGCCAGUGAUGUUGGCAGAUACG [theeternabot_sameState_KL_FMN_A_29] | 99.9 |
| AUAAUAUGAGUGAUGUUCAUGAAACCUGAAGGAGCGGACGAAAGUCCAGGUAGGUCGCAGGACUCCUUCAACAUGGGAGAGGGAG [KL-SSArg-A8 #analogue] | 194 |
| AAAGACUGACUGCAAUUAGCAGUCAGUCAACGAGGACCGGUACGGCCGCCACUCGGGUCCUAGAGUGAUGUUCUAAUAAUAUAAA [AK1.2 SS Tryptophan A] | 490 |
| UGUCAUUGGUCUGAUACCAGUACCCUUGGCAGCCGAGGAGUGAUGUUCCAAGGAUACCAGUACCCUUGGCAGCAGACCGAUGACU [TheoBS 30 #DoubleAptamer #SwitchBubble] | 108 |
| UUAGGAGAGGGAAGGAGCGUGAAAGAGAAAGAAUAUAGUGAUGUUAUAUAGAAGAAAGAAUCACAGGUAGGUCGCCCGGAGGAGG [SSArgB.C] | 225 |

Same assay, conditions: Eterna round: R107; input ligand: tryptophan 2.4 mM

| Sequence | apparent KD of K4 kissing-loop reporter [nM] |
| --- | --- |
| AAAAGCAGAAAGACGCAUUAAAGAACCGAAGGAGCGCGGAAUUACGCAGGUAGGUCGCGGGAUAAGCGAGUGAUGUUCGCGAAAG [Arginine A Same State; Euphoria Solution] | 53.6 |
| GGAGCAGGUGAAGGAUAUCCCGGGCCAGAGUGAUGUUCUGGAUCCCUUGCCGUUUCUAAACGGGUGGGAGAAGGUCACUGAUAAG [Bibimati] | 164 |
| UAUGCUUGUGCUGAUACCAGUGUUAGUGAUGUUAGGACUGUCAGUAGGAUGCGUGCAUUUCACCCUUGGCAGCAGUAUCGCAGCA [theeternabot_exclusion_KL_Theo_B_48] | 387 |
| GUUGACAGACUGCAAAACUAGUCAACAGACUAGGAUAUCAGGAAACUGAGAAGGAGUCAAGUUGCAGUGAUGUUGCAAGAAUAAU [KL-SSFMN-A27] | 136 |
| AUAGCUGAUAGCAGUGAUGUUGCUUCAGAUACCAGACGAGAUCAUGUCCCUUGGCAGCUGACAUGGCAAGUGCUAGGUUAGAUGA [#11 K4 Theophylline A Exclusion] | 130 |
| AACUGUCAAGGACAACAUUACUGCAGUGAUACCAGCAUCGAAAGAUGCCCUUGGCAGCACUAACUUGCAGUGAUGUUGCAAGUAA [BrourdMod 4 - Jieux - Exclusion - Theophylline A] | 264 |
| GUUAAUAGUAGUGAUGUUACAAUAGUUUGUGAGGAUAUCCCGAAAGGGAGAAGGCACAAACAAAUAGAUUCUCACAAAUAUUUAC [FMN A exclusion] | 146 |
| CGCGUACAGUGUUCUACGGCCGAGAGUGAUACCAGCCGUAUUUGUGGCCCUUGGCAGCGCAGAUGCAGUGAUGUUGCAUACUUGG [Same State Theophylline A GF 21] | 85.4 |
| GCGUGGCAGGCGGCCGCCACUCGGACGAGUCACAGUGAUGUUGUGGUUUGCCAGUCGUCUUCAUCGAGGACCGGGUUUGUUGCGC [Exclusion Tryptophan B GF 18] | 171 |
| UUUGGUUUCUCGGCCGCCACUCGUUGGUAAUGGGCCUCAGGGAUAUAGUGAUGUUAUGUAAAGAAGAGGACCGGGAGAAGGAAGG [ExTryptoB.Dn] | 156 |
| AAUAAAAUCACGGCCGCCACUGAUUUCCGUAUUAGGAGUGAUGUUCCUAUGACUAUAUAAUUUAACAGGACCGGGUGAAUAUUUA [#21 K4 Tryptophan B Exclusion] | 97.8 |
| UGGUUUAACUGAAGGAGCGGCAAUUGAUAAGUAGAUAUAGUGAUGUUAUAUAAGAUAGAGAGCCAGGUAGGUCGCAGAGGUAUUU [ExArgB.P] | 197 |
| UAUGUACACGGGUAGUGAUACAUCGAGGAAGGAGCGUGCGCAGGCACAGGUAGGUCGCCUCAGCGCACGAGUGAUGUUCGUGGGC [Veti] | 376 |
| AAGCAGUCACUCGAAGCCAUCGAAGAUGGGCGAGGACCGGUACGGCCGCCACUCGGAGUGAUGUUCCGAAGACUGCAAAAUAAAA | 567 |
| CUUCGAUUAACAGAUACCAGUCACUUGGGAGCCACACACAAGUGAGUGAUGUUCACUUGUGACCCUUGGCAGCUGUUAGUCGAAG [#04 K4 Theophylline B Exclusion] | 103 |
